The text below walks through data of US10029000B2, “Uses of IL-12 in hematopoiesis” (University of Southern California, priority 2003, dated 2018).

What all share (format): in vivo, mice
In experiment [1] the test system is bone marrow progenitor cells. Briefly: Colony forming cell assay (CFC assay) of bone marrow after lethal irradiation. As for the experimental part: (§1) To determine the bone marrow cell subsets that are protected by IL-12 administration for the rescue phenomena, CFC and CFU-S12 assay were performed at different time post lethal dose radiation. Bone marrow cells were recovered from IL-12 treated or control animals immediately (day 0), or at day 7, 9, 10, 12, 14 and 21 post radiation for CFC and CFU-S12 assay. If progenitor cells are protected from IL-12 treatment (IL-12 was administered in this study at 24 hours before radiation), CFC and CFU-S12 colonies should be detected when cells were removed at day 0. However, bone marrow cells isolated at day 0, 7 post radiation give rise no CFC nor CFU-S12 colonies in both IL-12 treated and control animals. At day 10 post radiation, the bone marrow cells isolated from IL-12 treated mice start to give rise of CFU-S12 but no detectable CFC, which start to appear from IL-112 treated bone marrow isolated 12 days post radiation and fully recovered from bone marrow cells isolated 14 days post radiation, as shown in FIGS. 5A and 5B. […] The CFU-S12 colony forming cells and CFC cells at day 10 and day 14 post radiation may be derived from long-term repopulating stem cells rescued by IL-12 treatment.
FIG. 5A: Isolated bone marrow cells were plated in methycellulose plates for 12 days to detect colony formation. Bone marrow cells from normal mice were used as control for the assay system. […] In contract, there is no recovery of CFC cell activity from control mice bone marrow cells.
24 hours before lethal irradiation, mice were i.v. treated with IL-12 (100 ng/mouse) and bone marrow cells were isolated from these mice at different days after lethal irradiation. For CFU assay, 2×10^5 bone marrow cells were thoroughly mixed into 1 ml methylcellulose medium MethCult GF M3434 from StemCell Technologies Inc (Vancouver, BC) and cultured into 35 mm dishes. Each sample was duplicated. After 12 days culture, colonies (>50 cells) were counted under microscope.

The subject of the next experiment is Sca-1+ cells. Briefly: Annexin V / Sca-1 detection after lethal dose radiation (apoptosis). The conditions noted are these: IL-12 24 hours before 10 Gy, 7 hours post radiation. As for the experimental part:
IL-12 administration protects Annexin V^−/Sca-1^+ cells (H4) from radiation induced apoptosis, where the Sca-1^+ positive cells are indicative of the presence of hematopoietic repopulating cell or hematopoietic stem cells and Annexin V negative cells are indicative of the functional bone marrow cells.
A study was conducted to assess whether IL-12 administration protects Sca-1+ cells from radiation induced apoptosis. The Sca-1+ is a marker for hematopoietic repopulating cell or stem/progenitor cells. 24 hours post IL-12 administration, mice received lethal dose radiation (10 Gy). 7 hours post radiation, mice were sacrificed and bone marrow cells were isolated to detect Annexin V (an indication of cell apoptosis) and Sca-1 antigen (stem cell marker).

Experiment [2] has as its system short-term hematopoietic stem cells (ST-HSCs). Briefly: Colony forming units spleen day 12 assay (CFU-S12). As for the experimental part: as §1, with “treatment. […]” for “treatment.”
For the CFU-spleen12 assay, 2×10^5 bone marrow cells as donors were transplanted into recipient mice which received lethal irradiation. […] Spleen colonies were counted.

The test system of another experiment is peripheral blood cells. Briefly: Blood cell recovery after chemotherapeutic drug Cytoxan. The conditions noted are these: Cytoxan 300 mg/kg, IL-12 36 hrs before or 12 hrs after, n=5. As for the experimental part:
FIG. 9A: white blood cell; FIG. 9B: red blood cell; FIG. 9C: platelet; FIG. 9D: lymphocyte; FIG. 9E: monocyte; FIG. 9F: neutrophile. Cytoxan is name for cyclophosphamide.
A study was conducted to determine whether IL-12 administration promotes multi-lineage blood cell recovery when used in conjunction with a chemotherapeutic drug. In this example, use of IL-12 is as an adjuvant or ancillary therapy to the primary therapy of chemotherapy. IL-12 was administrated at different time (36 hrs before or 12 hrs after chemotherapy). Mice in this study received a relatively high dose of chemotherapeutic drug Cytoxan (e.g., 300 mg/kg). At different time post-cytoxan treatment, peripheral blood was collected via tail vein for blood cell count study. (Mascot). FIG. 9A white blood cell count; B: red blood cell count; C: platelet count.

The next experiment deals with bone marrow. Briefly: Bone marrow histology (H&E) after lethal dose radiation. The conditions noted are these: 5 ug/kg. The method, then: At different time post IL-12 treatment (5 ug/kg) and lethal dose radiation (1, 12 and 14 days), femurs were isolated, fixed in 10% formalin, decalcified and processed for paraffin section and for Hematoxylin & Eosin staining. FIG. 2A: 1 day post radiation; FIG. 2B: 12 days post radiation; FIG. 2C: 14 days post radiation. […] (200× magnification)
To determine if IL-112 sensitizes intestinal tract to ionizing radiation, two different doses of IL-12 and radiation were used in radioprotection assay, namely 5 ug/kg and 50 ug/kg of IL-12 and two different doses of radiation were also used. Subsequent to the administration of IL-12 and radiation, both bone marrow and the small intestine were removed from mice who received either 5 ug/kg or 50 ug/kg of IL-12 and a lethal dose radiation for histology study. The lethal doses were either 1000 rad or 1600 rad.
Mice were treated with IL-12 (100 ng/mouse) or PBS 24 hours before receiving lethal irradiation. At different days after lethal irradiation, femurs, spleens and small intestines were removed and fixed in 10% formalin buffer for 24 hours. Subsequently, bone marrow was decalcified in Rapid Decalcifier for about 30 minutes. Samples and tissues then were embedded in TissuePrep 2 paraffin wax for micro-section at 5 μm for routine Hematoxylin and Eosin staining. Some small intestines were treated with PAS (Periodic Acid Schiff) staining.

Where [3] appears, read: lethal radiation, IL-12 24 hours before radiation.

Where “and” joins values, the source holds several entries; their conditions need not be identical. Identical values can stand only once. Entries after “also recorded” stand apart in the source; their conditions may differ.

B1: IL-12: Recombinant murine interleukin 12, heterodimeric cytokine (p35+p40), purchased from R&D Systems or PeproTech (protein, UniProt P43431 23-215; P43432 23-335, looked up)
Interleukin-12 subunit alpha: RVIPVSGPARCLSQSRNLLKTTDDMVKTAREKLKHYSCTAEDIDHEDITRDQTSTLKTCLPLELHKNESCLATRETSSTTRGSCLPPQKTSLMMTLCLGSIYEDLKMYQTEFQAINAALQNHNHQQIILDKGMLVAIDELMQSLNHNGETLRQKPPVGEADPYRVKMKLCILLHAFSTRVVTINRVMGYLSSA
Interleukin-12 subunit beta: MWELEKDVYVVEVDWTPDAPGETVNLTCDTPEEDDITWTSDQRHGVIGSGKTLTITVKEFLDAGQYTCHKGGETLSHSHLLLHKKENGIWSTEILKNFKNKTFLKCEAPNYSGRFTCSWLVQRNMDLKFNIKSSSSSPDSRAVTCGMASLSAEKVTLDQRDYEKYSVSCQEDVTCPTAEETLPIELALEARQQNKYENYSTSFFIRDIIKPDPPKNLQMKPLKNSQVEVSWEYPDSWSTPHSYFSLKFFVRIQRKKEKMKETEEGCNQKGAFLVEKTSTEVQCKGGNVCVQAQDRYYNSSCSKWACVPCRVRS
For B1, the CFC activity entry in experiment [1] (day 12 post lethal radiation) is recorded as “low level CFC cell activity”; in experiment [1] (first 9 days post lethal radiation, IL-12 24 hours before radiation) it was “no detectable CFC activity”. Further, the “time of full recovery of CFC activity” value in experiment [1] (setting [3]) is listed as “about 14 days post radiation”. The “AnnexinV-/Sca-1+ cells in whole bone marrow” value in the experiment on Sca-1+ cells (control 9.7±1.5%, p<0.01) was 19.2±3.7% and 19.2±2.3%. Moreover, the “proportion of AnnexinV-/Sca-1+ cells in total Sca-1+ cells” value in the experiment with Sca-1+ cells (control 44±5%, p<0.05) worked out at 54±5%. Further, the CFU-S12 activity entry in experiment [2] (cells isolated the first 7 days post lethal radiation) is “did not give rise of CFU-S12”. Besides, the “time of full recovered CFU-S12 activity” value in experiment [2] (setting [3]) amounted to 10 days post radiation. Besides, the “blood cell recovery versus control” value in the experiment with peripheral blood cells is listed as “better blood cell recovery”. In the experiment with bone marrow (day 1 post lethal radiation), the “bone marrow cellularity versus control” value is on record as “significant higher cellularity”. Also, the “bone marrow histological structure versus control” value in the experiment with bone marrow (day 7 and day 10 post radiation) is reported as “no significant difference”. Also, in the experiment on bone marrow (day 12 post radiation), the bone marrow colonies entry is “colonies were observed”. The bone marrow recovery result in the experiment on bone marrow (day 14 post radiation) is recorded as “full recovery of bone marrow cellularity; also recorded: significant regeneration”.
